Test results from paper PMC3578133 (Cancer research, 2012).

Key:
[1] = molecular target: T1, recombinant full length flag-tagged N-CoR (amino-acid 1-2440) (human, UniProt O75376 1-2440); experiment: co-IP
[2] = molecular target: T1, recombinant full length flag-tagged …; experiment: SPR

T1 sequence (O75376 whole entry): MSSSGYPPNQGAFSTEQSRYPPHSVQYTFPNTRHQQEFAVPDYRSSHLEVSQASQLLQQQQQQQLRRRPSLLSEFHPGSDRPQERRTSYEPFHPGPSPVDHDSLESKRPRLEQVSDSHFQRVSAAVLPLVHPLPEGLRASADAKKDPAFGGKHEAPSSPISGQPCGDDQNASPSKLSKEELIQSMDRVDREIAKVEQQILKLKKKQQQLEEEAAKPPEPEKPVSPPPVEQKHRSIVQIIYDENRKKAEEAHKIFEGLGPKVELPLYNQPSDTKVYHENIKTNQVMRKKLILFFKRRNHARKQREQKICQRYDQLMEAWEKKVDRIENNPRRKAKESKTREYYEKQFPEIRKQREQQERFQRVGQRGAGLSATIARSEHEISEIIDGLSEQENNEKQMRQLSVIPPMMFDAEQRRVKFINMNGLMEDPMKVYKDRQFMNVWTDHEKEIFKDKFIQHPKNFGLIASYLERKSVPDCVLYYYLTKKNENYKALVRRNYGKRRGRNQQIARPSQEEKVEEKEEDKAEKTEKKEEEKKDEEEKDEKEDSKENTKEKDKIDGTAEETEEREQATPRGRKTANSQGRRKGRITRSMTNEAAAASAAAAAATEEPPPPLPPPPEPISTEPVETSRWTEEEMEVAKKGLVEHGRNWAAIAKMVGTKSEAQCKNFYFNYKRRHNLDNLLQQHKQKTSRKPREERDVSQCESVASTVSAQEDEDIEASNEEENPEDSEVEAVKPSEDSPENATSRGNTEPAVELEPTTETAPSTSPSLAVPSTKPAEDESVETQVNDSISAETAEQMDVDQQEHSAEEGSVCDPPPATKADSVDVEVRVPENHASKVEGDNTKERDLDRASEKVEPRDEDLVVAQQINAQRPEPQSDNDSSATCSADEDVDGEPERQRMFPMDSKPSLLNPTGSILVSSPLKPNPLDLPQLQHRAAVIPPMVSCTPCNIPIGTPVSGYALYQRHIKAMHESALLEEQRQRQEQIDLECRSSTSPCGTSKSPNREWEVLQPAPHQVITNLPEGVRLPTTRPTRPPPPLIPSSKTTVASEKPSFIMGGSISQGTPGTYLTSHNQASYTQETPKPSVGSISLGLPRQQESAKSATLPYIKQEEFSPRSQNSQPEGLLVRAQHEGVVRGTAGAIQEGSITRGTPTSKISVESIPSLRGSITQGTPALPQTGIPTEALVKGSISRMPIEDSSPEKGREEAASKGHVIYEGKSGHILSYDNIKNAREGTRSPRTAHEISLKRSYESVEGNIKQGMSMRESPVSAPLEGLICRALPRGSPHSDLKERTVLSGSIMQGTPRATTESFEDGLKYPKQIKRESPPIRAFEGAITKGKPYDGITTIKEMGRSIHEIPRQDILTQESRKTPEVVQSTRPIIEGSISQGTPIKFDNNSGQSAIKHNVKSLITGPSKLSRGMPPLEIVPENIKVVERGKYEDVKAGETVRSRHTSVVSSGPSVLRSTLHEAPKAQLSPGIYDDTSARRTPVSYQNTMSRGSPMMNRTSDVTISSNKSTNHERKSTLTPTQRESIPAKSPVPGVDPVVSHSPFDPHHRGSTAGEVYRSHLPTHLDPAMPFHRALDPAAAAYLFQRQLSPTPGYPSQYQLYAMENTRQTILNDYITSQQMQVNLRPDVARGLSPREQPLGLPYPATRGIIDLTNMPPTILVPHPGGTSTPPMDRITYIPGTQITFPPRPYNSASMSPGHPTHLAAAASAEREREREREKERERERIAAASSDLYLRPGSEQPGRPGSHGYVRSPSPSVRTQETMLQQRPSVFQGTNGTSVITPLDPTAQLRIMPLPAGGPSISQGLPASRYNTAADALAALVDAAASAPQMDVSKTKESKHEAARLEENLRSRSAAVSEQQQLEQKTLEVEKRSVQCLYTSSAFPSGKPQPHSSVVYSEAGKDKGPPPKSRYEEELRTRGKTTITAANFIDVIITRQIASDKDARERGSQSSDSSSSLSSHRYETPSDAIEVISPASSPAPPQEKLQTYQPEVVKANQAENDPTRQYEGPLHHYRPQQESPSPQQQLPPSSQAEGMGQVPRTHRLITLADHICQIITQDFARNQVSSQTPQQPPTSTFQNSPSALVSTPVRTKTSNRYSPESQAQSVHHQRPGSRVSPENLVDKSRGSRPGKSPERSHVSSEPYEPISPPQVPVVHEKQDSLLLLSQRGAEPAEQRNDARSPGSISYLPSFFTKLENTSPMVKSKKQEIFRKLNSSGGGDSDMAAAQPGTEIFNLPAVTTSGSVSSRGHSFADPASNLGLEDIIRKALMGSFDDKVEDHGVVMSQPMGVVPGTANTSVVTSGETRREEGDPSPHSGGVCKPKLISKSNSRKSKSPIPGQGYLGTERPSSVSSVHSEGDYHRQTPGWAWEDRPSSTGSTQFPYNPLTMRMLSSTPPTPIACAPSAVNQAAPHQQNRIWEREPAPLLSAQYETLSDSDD

binding result [1]	Kd [2]	Binder
binds	–	recombinant GST-tagged HDAC4 (amino acid 627-1085) (domain or fragment, human, UniProt P56524 627-1084, looked up) LSRAQSSPASATFPVSVQEPPTKPRFTTGLVYDTLMLKHQCTCGSSSSHPEHAGRIQSIWSRLQETGLRGKCECIRGRKATLEELQTVHSEAHTLLYGTNPLNRQKLDSKKLLGSLASVFVRLPCGGVGVDSDTIWNEVHSAGAARLAVGCVVELVFKVATGELKNGFAVVRPPGHHAEESTPMGFCYFNSVAVAAKLLQQRLSVSKILIVDWDVHHGNGTQQAFYSDPSVLYMSLHRYDDGNFFPGSGAPDEVGTGPGVGFNVNMAFTGGLDPPMGDAEYLAAFRTVVMPIASEFAPDVVLVSSGFDAVEGHPTPLGGYNLSARCFGYLTKQLMGLAGGRIVLALEGGHDLTAICDASEACVSALLGNELDPLPEKVLQQRPNANAVRSMEKVMEIHSKYWRCLQRTTSTAGRSLIEAQTCENEEAETVTAMASLSVGVKPAEKRPDEEPMEEEPPL
–	1 nM	human full length N-terminal GST-tagged HDAC4 (natural protein, UniProt P56524 1-1084, looked up) MSSQSHPDGLSGRDQPVELLNPARVNHMPSTVDVATALPLQVAPSAVPMDLRLDHQFSLPVAEPALREQQLQQELLALKQKQQIQRQILIAEFQRQHEQLSRQHEAQLHEHIKQQQEMLAMKHQQELLEHQRKLERHRQEQELEKQHREQKLQQLKNKEKGKESAVASTEVKMKLQEFVLNKKKALAHRNLNHCISSDPRYWYGKTQHSSLDQSSPPQSGVSTSYNHPVLGMYDAKDDFPLRKTASEPNLKLRSRLKQKVAERRSSPLLRRKDGPVVTALKKRPLDVTDSACSSAPGSGPSSPNNSSGSVSAENGIAPAVPSIPAETSLAHRLVAREGSAAPLPLYTSPSLPNITLGLPATGPSAGTAGQQDAERLTLPALQQRLSLFPGTHLTPYLSTSPLERDGGAAHSPLLQHMVLLEQPPAQAPLVTGLGALPLHAQSLVGADRVSPSIHKLRQHRPLGRTQSAPLPQNAQALQHLVIQQQHQQFLEKHKQQFQQQQLQMNKIIPKPSEPARQPESHPEETEEELREHQALLDEPYLDRLPGQKEAHAQAGVQVKQEPIESDEEEAEPPREVEPGQRQPSEQELLFRQQALLLEQQRIHQLRNYQASMEAAGIPVSFGGHRPLSRAQSSPASATFPVSVQEPPTKPRFTTGLVYDTLMLKHQCTCGSSSSHPEHAGRIQSIWSRLQETGLRGKCECIRGRKATLEELQTVHSEAHTLLYGTNPLNRQKLDSKKLLGSLASVFVRLPCGGVGVDSDTIWNEVHSAGAARLAVGCVVELVFKVATGELKNGFAVVRPPGHHAEESTPMGFCYFNSVAVAAKLLQQRLSVSKILIVDWDVHHGNGTQQAFYSDPSVLYMSLHRYDDGNFFPGSGAPDEVGTGPGVGFNVNMAFTGGLDPPMGDAEYLAAFRTVVMPIASEFAPDVVLVSSGFDAVEGHPTPLGGYNLSARCFGYLTKQLMGLAGGRIVLALEGGHDLTAICDASEACVSALLGNELDPLPEKVLQQRPNANAVRSMEKVMEIHSKYWRCLQRTTSTAGRSLIEAQTCENEEAETVTAMASLSVGVKPAEKRPDEEPMEEEPPL
